The assay addresses T1, SULU1-coiled-coil2 GST fusion (Construct 1; amino acids 752-898) (human, UniProt Q5R4F3 752-898 (Pongo abelii entry)).
T1 construct: Immobilised bait in T7 phage display; also called SULU1 ccl; not shown: glutathione S-transferase (GST) of vector pGEX-4T; baits were made as C-terminal fusions to GST, expressed in E. coli
T1 sequence: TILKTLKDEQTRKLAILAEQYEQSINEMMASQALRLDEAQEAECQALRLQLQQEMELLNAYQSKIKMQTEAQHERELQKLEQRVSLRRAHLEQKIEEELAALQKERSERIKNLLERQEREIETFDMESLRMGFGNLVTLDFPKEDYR
Kind of assay: T7 phage display, H441 cDNA library, GST-fused bait; interactor listed.

B1: GEK2 coiled-coil domain displayed on T7 phage (677-820 of SEQ #26) (other)
chain: KESMKQKMEEHTQKKQLLDRDFVAKQKEDLELAMKRLTTDNRREICDKERECLMKKQELLRDREAALWEMEEHQLQERHQLVKQQLKDQYFLQRHELLRKHEKEREQMQRYNQRMIEQLKVRQQQEKARLPKIQRSEGKTRMAM
notes: also called GEK2 cc dom; GEK2 CC1; not shown: T7 phage coat protein of vector T7Select1-1b to which the cDNA fragment is fused
On to B1, for which the binding result is “binds”.

(Values after EP1595946A2 (Sugen, Inc., dated 2005).)
